IC50/EC50, XTT growth inhibition, HL-60 cells, IC50/EC50, XTT growth inhibition, U937 cells and IC50/EC50, XTT growth inhibition, hM1φ data for 4 molecules are collected here from patent US20170369574A1.

The target in the assay is CD64 (FcγRI) (human) (UniProt P12314). As to the kind of experiment: cell-based or functional assay.

Several values for one entry are separate records, joined by “and”; a condition that tells them apart may be missing. Equal entries are not always repeated.

Chain of UniProt P12314 (P12314 16-374): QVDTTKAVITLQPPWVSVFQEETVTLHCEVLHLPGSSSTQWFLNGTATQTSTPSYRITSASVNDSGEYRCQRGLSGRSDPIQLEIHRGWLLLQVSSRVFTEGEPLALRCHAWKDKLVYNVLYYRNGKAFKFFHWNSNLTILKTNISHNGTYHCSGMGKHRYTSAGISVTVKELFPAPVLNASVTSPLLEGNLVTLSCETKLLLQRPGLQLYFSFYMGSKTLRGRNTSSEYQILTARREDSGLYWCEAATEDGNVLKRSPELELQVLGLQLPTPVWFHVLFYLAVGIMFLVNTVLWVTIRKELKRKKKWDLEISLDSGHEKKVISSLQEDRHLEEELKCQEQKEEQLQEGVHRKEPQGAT

Turning to H22(scFv)-Ang, the IC50/EC50, XTT growth inhibition, HL-60 cells is 10 nM; the IC50/EC50, XTT growth inhibition, U937 cells was found to be 0.2 nM; the IC50/EC50, XTT growth inhibition, hM1φ was 0.29 nM and 0.108 nM.

In the case of H22(scFv)-MAP, the IC50/EC50, XTT growth inhibition, HL-60 cells stood at 0.04 nM.

B1: GB-H22(scFv) (scFv)
chain: HIDDDDKIIGGHEAKPHSRPYMAFLMIWDQKSLKRCGGFLIRDDFVLTAAHCWGSSINVTLGAHNIKEQEPTQQFIPVKRAIPHPAYNPKNFSNDIMLLQLERKAKRTRAVQPLRLPSNKAQVKPGQTCSVAGWGQTAPLGKHSHTLQEVKMTVQEDRKCESDLRHYYDSTIELCVGDPEIKKTSFKGDSGGPLVCNKVAQGIVSYGRNNGMPPRACTKVSSFVHWIKKTMKRYGSKLAEHEGDAAQPAMAQVQLVESGGGVVQPGRSLRLSCSSSGFIFSDNYMYWVRQAPGKGLEWVATISDGGSYTYYPDSVKGRFTISRDNSKNTLFLQMDSLRPEDTGVYFCARGYYRYEGAMDYWGQGTPVTVSSGGGGSGGGGSGGGGSDIQLTQSPSSLSASVGDRVTITCKSSQSVLYSSNQKNYLAWYQQKPGKAPKLLIYWASTRESGVPSRFSGSGSGTDFTFTISSLQPEDIATYYCHQYLSSWTFGQGTKLEIKAAAGPHHHHHH
With B1, the IC50/EC50, XTT growth inhibition, hM1φ was 0.414 nM and 0.14 nM.

B2: GBR201K-H22(scFv) (scFv)
chain: HIDDDDKIIGGHEAKPHSRPYMAFLMIWDQKSLKRCGGFLIRDDFVLTAAHCWGSSINVTLGAHNIKEQEPTQQFIPVKRAIPHPAYNPKNFSNDIMLLQLERKAKRTRAVQPLRLPSNKAQVKPGQTCSVAGWGQTAPLGKHSHTLQEVKMTVQEDRKCESDLRHYYDSTIELCVGDPEIKKTSFKGDSGGPLVCNKVAQGIVSYGKNNGMPPRACTKVSSFVHWIKKTMKRYAEHEGDAAQPAMAQVQLVESGGGVVQPGRSLRLSCSSSGFIFSDNYMYWVRQAPGKGLEWVATISDGGSYTYYPDSVKGRFTISRDNSKNTLFLQMDSLRPEDTGVYFCARGYYRYEGAMDYWGQGTPVTVSSGGGGSGGGGSGGGGSDIQLTQSPSSLSASVGDRVTITCKSSQSVLYSSNQKNYLAWYQQKPGKAPKLLIYWASTRESGVPSRFSGSGSGTDFTFTISSLQPEDIATYYCHQYLSSWTFGQGTKLEIKAAAGPHHHHHH
With B2, the IC50/EC50, XTT growth inhibition, HL-60 cells was 2.4 nM and 5.7 nM.
